Source: patent publication US12466859B2, “Desmoglein 2 (DSG2) binding proteins and uses therefor” (UNIVERSITY OF WASHINGTON THROUGH ITS CENTER FOR …, priority 2013, dated 2025)
Where two headings read alike, the source gives them in different places.

Tests used:
[1] = tested on: polarized colon cancer T84 cells; conditions: previous studies (37, 41, 42); cited from earlier work
DSG2 [2] = molecular target: T1, DSG2 (Homo sapiens, UniProt Q14126); conditions: previous studies (37, 41, 42); cited from earlier work
T1 construct: Western blot using soluble recombinant DSG2 as a probe; purchased Leinco Technologies, Inc. (St. Louis, MO)
T1 sequence (Q14126 50-609 limits assumed): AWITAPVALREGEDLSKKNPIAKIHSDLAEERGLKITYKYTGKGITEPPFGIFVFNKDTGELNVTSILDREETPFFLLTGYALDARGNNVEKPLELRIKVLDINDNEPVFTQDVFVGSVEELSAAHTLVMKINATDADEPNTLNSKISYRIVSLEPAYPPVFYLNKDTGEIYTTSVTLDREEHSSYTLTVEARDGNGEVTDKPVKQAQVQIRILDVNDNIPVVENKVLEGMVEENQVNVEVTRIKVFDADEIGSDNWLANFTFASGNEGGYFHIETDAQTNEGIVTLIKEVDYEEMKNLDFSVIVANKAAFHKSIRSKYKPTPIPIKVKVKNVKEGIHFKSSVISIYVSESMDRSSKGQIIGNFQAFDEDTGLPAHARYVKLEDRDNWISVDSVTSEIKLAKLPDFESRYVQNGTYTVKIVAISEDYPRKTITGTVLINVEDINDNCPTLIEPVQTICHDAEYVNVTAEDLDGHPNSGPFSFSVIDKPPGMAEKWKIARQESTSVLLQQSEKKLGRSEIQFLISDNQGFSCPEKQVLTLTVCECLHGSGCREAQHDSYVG

Ad3-GFP virus [3] = conditions: previous studies (37, 41, 42); cited from earlier work
soluble recombinant DSG2 = molecular target: T2, soluble recombinant DSG2 (Homo sapiens, UniProt Q14126); test: Western blot of dimeric Ad3 fiber knob mutants with soluble recombinant DSG2 as probe; format: binding; conditions: dimerized knob mutants compared to JO-1
T2 construct: Western blot using soluble recombinant DSG2 as a probe; purchased Leinco Technologies, Inc. (St. Louis, MO)
T2 sequence (Q14126 50-609 limits assumed): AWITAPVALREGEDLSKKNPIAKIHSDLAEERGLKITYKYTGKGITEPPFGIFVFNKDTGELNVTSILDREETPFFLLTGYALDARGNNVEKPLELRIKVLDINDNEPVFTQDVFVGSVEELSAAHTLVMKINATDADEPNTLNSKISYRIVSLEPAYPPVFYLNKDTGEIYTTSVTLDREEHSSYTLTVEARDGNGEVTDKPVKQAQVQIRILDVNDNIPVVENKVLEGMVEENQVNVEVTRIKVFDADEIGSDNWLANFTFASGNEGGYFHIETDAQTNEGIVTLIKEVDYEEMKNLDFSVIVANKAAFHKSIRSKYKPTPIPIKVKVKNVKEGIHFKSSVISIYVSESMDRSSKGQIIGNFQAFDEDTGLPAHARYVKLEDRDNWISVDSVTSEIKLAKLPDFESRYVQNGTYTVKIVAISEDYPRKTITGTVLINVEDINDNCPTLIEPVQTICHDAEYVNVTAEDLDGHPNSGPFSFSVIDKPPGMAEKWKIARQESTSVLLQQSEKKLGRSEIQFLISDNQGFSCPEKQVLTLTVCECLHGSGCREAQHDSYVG
Excerpt: FIG. 1A-1F. Residues found to be critically involved in binding to DSG2. FIG. 1A) Shown are the amino acid sequences of the Ad3 and Ad14p1 fiber knob. Beta sheets present in the Ad3 knob (PDB accession number 1H7Z_A) and Ad14 knob (PDB: 3F0Y_A) are indicated by lines. Black arrows indicate residues within the Ad3 fiber knob which, when mutated individually, ablate or reduce binding to DSG2. […] FIG. 1B) Schematic structure of dimeric Ad3 fiber knob mutants. The fiber knob domain and one shaft motif was fused through a flexible linker to a homodimerizing K-coil domain (41). The proteins are self-dimerizing and can be purified by His-Ni-NTA affinity chromatography. FIG. 1C-FIG. 1F) Analysis of binding of dimeric Ad3 fiber knob mutants to soluble DSG2. FIG. 1C and FIG. 1D) Coomassie staining. 10 μg of purified Ad3 fiber knob (unboiled) were loaded per lane. Trimeric forms of the fiber knobs are indicated by an arrow. The gel contained SDS and the loading buffer containing DTT, which caused the disassembly of dimers of trimeric fiber knobs as previously reported (41). FIG. 1E and FIG. 1F): Western blot using soluble recombinant DSG2 as a probe, followed by anti-DSG2-mAb and anti-mouse IgG-HRP. For comparison, JO-1 (0.5 μg/lane) is shown. The Western blots were scanned and signals were quantified.
Western Blot: Mini-PROTEAN precast gels (BIO-RAD, Hercules, CA) with 4-15% gradient polyacrylamide were used. A total of 1 μg protein mixed with 2× loading buffer (10 mM Tris-HCl, pH6.8, 200 mM DTT, 4% SDS, 20% glycerol, 0.2% bromophenol blue) was loaded per lane. Samples were either boiled (B) for 5 min or loaded unboiled (UB). The following running buffer was used: 25 mM Tris, pH8.3, 0.192 M glycine, 0.1% SDS. After electrophoresis, proteins were transferred to nitrocellulose and incubated with recombinant human DSG2 protein and anti-DSG2 antibodies as described previously (42). The Western blots were scanned and quantified using the ImageJ 1.32 software (National Institutes of Health, Bethesda, MD). JO-1 band intensity was set as 100%. […]

3H-labeled Ad3 virus = test: Competition of 3H-labeled Ad3 virus attachment to HeLa cells; format: cell-based, adenovirus serotype 3
Protocol: FIG. 3A-3D. Competition of Ad3 virus by dimerized Ad3 knob mutants. FIG. 3A) Relative attachment of ^3H-labeled Ad3 virus in the presence of dimeric fiber knob mutants. 1.8×10^5 HeLa cells were incubated with Ad3 knob mutants at a concentration of 2.5 and 100 μg/ml on ice for 1 hour. Then 400 pfu/cell of ^3H-Ad3 virus was added on ice for another hour. Unbound virus particles were washed away. Attachment of virus particles incubated with PBS was taken as 100%. N=3. FIG. 3B1-3B2) Competition of Ad3-GFP virus infection on HeLa cells. 1.5×10^5 HeLa cells were seeded into 24 well plates. Cells were incubated with the Ad3 knob mutants at increasing concentrations for one hour at room temperature. 100 pfu/cell of Ad3-GFP virus were then added and GFP expression was analyzed 18 hours later by flow cytometry. FIG. 3B1) percentage of GFP positive cells. FIG. 3B2) mean fluorescence intensity. N=3. The standard deviation was less than 10%. FIG. 3C) Relative attachment of ^3H-labeled Ad3 virus in the presence of dimeric fiber knob mutants with multiple mutations. […]
Competition assays. […] After the last wash, the supernatant was removed and the cell-associated radioactivity was determined by a scintillation counter. The number of VP bound per cell was calculated by using the virion specific radioactivity and the number of cells.

Ad3-GFP virus [4] = test: Competition of Ad3-GFP virus infection on HeLa cells; format: cell-based, adenovirus serotype 3; conditions: even at concentrations of 200 ug/ml
Protocol: FIG. 3A-3D. Competition of Ad3 virus by dimerized Ad3 knob mutants. FIG. 3A) Relative attachment of ^3H-labeled Ad3 virus in the presence of dimeric fiber knob mutants. 1.8×10^5 HeLa cells were incubated with Ad3 knob mutants at a concentration of 2.5 and 100 μg/ml on ice for 1 hour. Then 400 pfu/cell of ^3H-Ad3 virus was added on ice for another hour. Unbound virus particles were washed away. Attachment of virus particles incubated with PBS was taken as 100%. N=3. FIG. 3B1-3B2) Competition of Ad3-GFP virus infection on HeLa cells. 1.5×10^5 HeLa cells were seeded into 24 well plates. Cells were incubated with the Ad3 knob mutants at increasing concentrations for one hour at room temperature. 100 pfu/cell of Ad3-GFP virus were then added and GFP expression was analyzed 18 hours later by flow cytometry. FIG. 3B1) percentage of GFP positive cells. FIG. 3B2) mean fluorescence intensity. N=3. The standard deviation was less than 10%. FIG. 3C) Relative attachment of ^3H-labeled Ad3 virus in the presence of dimeric fiber knob mutants with multiple mutations. The study was performed as described in […]) The standard deviation was less than 10%. FIG. 3D) Competition of Ad3-GFP virus infection on HeLa cells. The study was performed as described in FIG. 3C) The standard deviation was less than 10%.
FIG. 9A1-9C. Analysis of dimeric Ad3 fiber knob mutants with increased affinity to DSG2. FIG. 9A1-9A2) Competition of Ad3-GFP virus infection on HeLa cells with dimeric affinity-enhanced mutant Y250F and JO-1 (dimeric wt Ad3 fiber knob). The experimental setting is as described for FIG. 3C. FIG. 9A1) percentage of GFP positive cells. FIG. 9A2) mean fluorescence intensity. N=3. The standard deviation was less than 10%. […] 100 pfu/cell of Ad3GFP virus were then added and GFP expression was analyzed 18 hours later. […]
Functional validation. […] Transduction was measured based on GFP expression (FIG. 3B). […] Dimeric Ad3 knob mutants with combined mutations were also analyzed for their ability to compete with Ad3 virus for attachment (FIG. 3C) and infection (FIG. 3D).

DSG2 [5] = molecular target: T1, DSG2; test: Surface plasmon resonance of Ad3 fiber knobs on immobilized DSG2; format: binding; conditions: knobs without dimerization domain
Protocol: FIG. 7A-7B. SPR analysis of non-dimerized Ad3 fiber knob interactions with DSG2. FIG. 7A) DSG2 was immobilized on sensorchips, and background was automatically subtracted from the control flow cell. The Ad3 fiber knobs (w/o dimerization domain: “noDD”) were injected for 3 minutes at 2.5 μg/ml followed by a 2.5 minutes dissociation period. FIG. 7B) Summary of SPR data. […] The extracted data are resumed in the table. Wt=Ad3 fiber knob without mutations FIG. 8A-8G. Electron microscopy and 3D structure of Ad3 fiber knob mutant JO-2.
Surface Plasmon Resonance: Acquisitions were done on a BIAcore 3000 instrument. HBS-N (GE-Healthcare, Pittsburgh, PA) supplemented with 2 mM CaCl2) was used as running buffer in all experiments at a flow rate of 5 [l/min. Immobilization on CM4 sensorchip (BIAcore) was performed using DSG2 at 10 μg/ml diluted in 10 mM Acetate buffer pH 4.5 injected for 10 minutes on ethyl(dimethylaminopropyl) carbodiimide (EDC)/N-Hydroxysuccinimide (NHS) activated flow-cell. A control flow-cell was activated by (EDC/NHS) and inactivated by ethanolamine. Different concentrations of Ad3 fiber knob proteins were injected for 3 minutes association followed by 2.5 minutes dissociation time, and the signal was automatically subtracted from the background of the ethanolamine deactivated EDC-NHS flow cell. Kinetic and affinity constants were calculated using the BIAeval software.

B1: Ad3 knob monomer: Recombinant (trimeric) fiber knob with two shaft motifs, but without the dimerization domain (protein)
chain: NKLCSKLGNGLTFDSSNSIALKNNTLWTGPKPEANCIIEYGKQNPDSKLTLILVKNGGIVNGYVTLMGASDYVNTLFKNKNVSINVELYFDATGHILPDSSSLKTDLELKYKQTADFSARGFMPSTTAYPFVLPNAGTHNENYIFGQCYYKASDGALFPLEVTVMLNKRLPDSRTSYVMTFLWSLNAGLAPETTQATLITSPFTFSYIREDD
modifications: left off: small tags and cut ends
notes: Recombinant (trimeric) fiber knob with two shaft motifs, but without the dimerization domain
Q: What does the source list for B1?
A: Junction opening [1]: does not trigger junction opening; Affinity of binding to DSG2 relative to JO-1 (DSG2 [2]): orders of magnitude less than JO-1; Block of Ad3 infection (Ad3-GFP virus [3]): not able to block Ad3 infection

B2: N186D, D261N, L296R: dimeric Ad3 fiber knob with a combination of all three N186D, D261N, and L296R (protein)
chain: MKVSALKEKVSALKEKVSALKEKVSALKEKVSALKEGSGGGSGGGSGGGSNSIALKNNTLWTGPKPEANCIIEYGKQNPDSKLTLILVKNGGIVNGYVTLMGASDYVNTLFKDKNVSINVELYFDATGHILPDSSSLKTDLELKYKQTADFSARGFMPSTTAYPFVLPNAGTHNENYIFGQCYYKASNGALFPLEVTVMLNKRLPDSRTSYVMTFLWSLNAGRAPETTQATLITSPFTFSYIREDD
Q: What does the source list for B2?
A: DSG2 binding in Western blot, in words (soluble recombinant DSG2): highest level of ablation; Inhibition of attachment in the presence of dimeric knob (JO-1 = 100%) (3H-labeled Ad3 virus; Ad3 virus attachment to HeLa cells, N=3, averages): 18.5%; Block of Ad3 binding (attachment) (3H-labeled Ad3 virus; even at concentrations of 200 ug/ml): did not block; Block of Ad3 infection (Ad3-GFP virus [4]): did not block

B3: N293S/noDD (protein)
chain: NKLCSKLGNGLTFDSSNSIALKNNTLWTGPKPEANCIIEYGKQNPDSKLTLILVKNGGIVNGYVTLMGASDYVNTLFKNKNVSINVELYFDATGHILPDSSSLKTDLELKYKQTADFSARGFMPSTTAYPFVLPNAGTHNENYIFGQCYYKASDGALFPLEVTVMLNKRLPDSRTSYVMTFLWSLSAGLAPETTQATLITSPFTFSYIREDD
modifications: left off: small tags and cut ends
Q: Which results are given for B3?
A: association rate to DSG2, in words (DSG2 [5]): lowest when compared to other mutants; dissociation rate, in words (DSG2 [5]): slower dissociation rate
